Experimental data reported in US20250152746A1, “BASE EDITING OF ANGPTL3 AND METHODS OF USING SAME FOR TREATMENT OF DISEASE” (Verve Therapeutics, Inc., priority 2020, published 2025).
In the oligonucleotide strings, read from the 5' end, every base follows the letter of its sugar. An asterisk marks phosphorothioate; unmarked linkages are phosphodiester. Other units and linkages are bracketed, terminal groups are in braces. A string of capitals states the bases alone. m = 2'-O-methyl; r = 2'-OH (RNA)

Assays:
[1] = test system: PCSK9 gene; test: PCSK9 gRNA/SpCas9 editing in primary human hepatocytes (Tables 2, 4); assay type: cell-based; settings: SpCas9 mRNA MS002 1:1 by weight; for Human Primary Hepatocyte Editing % 100: 100 ng/RNA/mL; for Human Primary Hepatocyte Editing % 500: 500 ng/RNA/mL; for Human Primary Hepatocyte Editing % 2500: 2500 ng/RNA/mL
Summary of the method: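 Primary human hepatocytes co-transfected with PCSK9 gRNA plus SpCas9 mRNA (1:1 by weight) at 2500, 500 or 100 ng RNA/mL, or 2500–250 ng/mL for tracr-modified guides. Editing at the target site read by amplicon next-generation sequencing of extracted genomic DNA.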

[2] = test system: PCSK9 gene; test: PCSK9 gRNA/SpCas9 editing in primary cynomolgus hepatocytes (Tables 2, 22); assay type: cell-based, cynomolgus monkey; settings: SpCas9 mRNA MS002 1:1 by weight; for Cyno Primary Hepatocyte Editing % 100: 100 ng/RNA/mL; for Cyno Primary Hepatocyte Editing % 500: 500 ng/RNA/mL; for Cyno Primary Hepatocyte Editing % 2500: 2500 ng/RNA/mL
[3] = test system: PCSK9 gene splice site; assay type: cell-based, human
Description: PCSK9 gRNAs were co-transfected with an equivalent amount of in vitro transcribed ABE8.8 mRNA MA002 (1:1 ratio by weight) into primary hepatocytes and processed as described in detailed methods. In one set of experiments, extracted genomic DNA was analyzed for base editing of the target splice site with next-generation sequencing of PCR amplicons generated around the target sites. Samples were prepared using the Nextera XT DNA library preparation kit (Illumina) according to the manufacturer's protocol. Briefly, two rounds of PCR were performed first to amplify the region of interest and second to add DNA sequences required for next generation sequencing and sample identification to the initial product. The final amplicon was sequenced on the Illumina MiSeq instrument according to the manufacturer's protocol.
Similarly, three gRNAs (GA098, GA099, GA100) were synthesized matching the 5′-[…]-3′ (SEQ ID NO: 15) (GA091) human protospacer sequence, as well as four gRNAs (GA067/GA101, GA102, GA103, GA347) matching the 5′-[…]-3′ (SEQ ID NO: 14) (GA067) cynomolgus protospacer sequence, but with more extensive chemical modifications of various kinds (Table 1). GA066 and GA095 contain the same chemical composition and modification pattern, as do GA067 and GA101 with one another. […] Each of the gRNAs described in Table 8, with an equivalent amount of in vitro transcribed ABE8.8 mRNA MA002 (1:1 ratio by weight), were co-transfected into primary human hepatocytes and primary cynomolgus hepatocytes via MessengerMax reagent, using various dilutions to assess for editing activity at different concentrations of test article. Three days after transfection, genomic DNA was harvested from the hepatocytes, and then assessed for base editing of the target splice site with next-generation sequencing.
Modifications and/or truncations to either the spacer or tracr portion of the gRNA was assessed by alteration of the GA066 spacer (5′-[…]-3′ (SEQ ID NO: 13)) (Table 12). […] Each of the gRNAs with an equivalent amount of in vitro transcribed ABE8.8 mRNA (1:1 ratio by weight) were co-transfected into primary human hepatocytes and primary cynomolgus hepatocytes and processed as described in detailed methods. […]

B1: GA181: PCSK9 gRNA; protospacer GGCTTCCTGGTGAAGATGAG (SEQ ID NO: 175) (nucleic acid)
guide: mG*mG*mC*rUrUrCrCrUrGrGrUrGrArArGrArUrGrArGrGrUrUrUrUrArGrArGrCrUrArGrArArArUrArGrCrArArGrUrUrArArArArUrArArGrGrCrUrArGrUrCrCrGrUrUrArUrCrArArCrUrUrGrArArArArArGrUrGrGrCrArCrCrGrArGrUrCrGrGrUrGrCrU*mU*mU*mU
Human Primary Hepatocyte Editing % 100 [1]: 28.87% | Cyno Primary Hepatocyte Editing % 100 [2]: 3.66% | Cyno Primary Hepatocyte Editing % 500 [2]: 15.43% | Cyno Primary Hepatocyte Editing % 2500 [2]: 45.12%

B2: GA186: PCSK9 gRNA; protospacer CTCATCTTCACCAGGAAGCC (SEQ ID NO: 180) (nucleic acid)
guide: mC*mU*mC*rArUrCrUrUrCrArCrCrArGrGrArArGrCrCrGrUrUrUrUrArGrArGrCrUrArGrArArArUrArGrCrArArGrUrUrArArArArUrArArGrGrCrUrArGrUrCrCrGrUrUrArUrCrArArCrUrUrGrArArArArArGrUrGrGrCrArCrCrGrArGrUrCrGrGrUrGrCrU*mU*mU*mU
Human Primary Hepatocyte Editing % 100 [1]: 0.79% | Human Primary Hepatocyte Editing % 500 [1]: 3.57% | Human Primary Hepatocyte Editing % 2500 [1]: 12.01% | Cyno Primary Hepatocyte Editing % 100 [2]: 1.96% | Cyno Primary Hepatocyte Editing % 500 [2]: 7.59% | Cyno Primary Hepatocyte Editing % 2500 [2]: 33.48%

B3: GA083: PCSK9 gRNA for ABE8.8 splice site editing, Human/Cyno (nucleic acid)
guide: UAAGGCCCAAGGGGGCAAGCGTTTTAGAGCTAGAAATAGCAAGTTAAAATAAGGCTAGTCCGTTATCAACTTGAAAAAGTGGCACCGAGTCGGTGCTTTT
modifications: 2'-O-methyl at 1, 2, other sugars and backbone not given here; further chemistry not fully specified
notes: PCSK9 gRNA for ABE8.8 splice site editing, Human/Cyno
Human Primary Hepatocytes-splice site editing % 1250 ng/mL [3]: 0.2% | Human Primary Hepatocytes-splice site editing % 2500 ng/mL [3]: 0.2% | Human Primary Hepatocytes-splice site editing % 5000 ng/mL [3]: 0.2%

B4: GA184: PCSK9 gRNA; protospacer ATGGAAGACATGCAGGATCT (SEQ ID NO: 178) (nucleic acid)
guide: mA*mU*mG*rGrArArGrArCrArUrGrCrArGrGrArUrCrUrGrUrUrUrUrArGrArGrCrUrArGrArArArUrArGrCrArArGrUrUrArArArArUrArArGrGrCrUrArGrUrCrCrGrUrUrArUrCrArArCrUrUrGrArArArArArGrUrGrGrCrArCrCrGrArGrUrCrGrGrUrGrCrU*mU*mU*mU
Human Primary Hepatocyte Editing % 100 [1]: 2.65% | Human Primary Hepatocyte Editing % 500 [1]: 8.29% | Human Primary Hepatocyte Editing % 2500 [1]: 29.55% | Cyno Primary Hepatocyte Editing % 100 [2]: 2.90% | Cyno Primary Hepatocyte Editing % 500 [2]: 10.54% | Cyno Primary Hepatocyte Editing % 2500 [2]: 31.87%

B5: GA078: PCSK9 gRNA for ABE8.8 splice site editing, Human/Cyno (nucleic acid)
guide: AGCACCTACCTCGGGAGCTGGTTTTAGAGCTAGAAATAGCAAGTTAAAATAAGGCTAGTCCGTTATCAACTTGAAAAAGTGGCACCGAGTCGGTGCTTTT
modifications: listed as RNA; note = Description of Combined DNA/RNA Molecule: Synthetic oligonucleotide; modified_base 1: mod_base = OTHER; note = 2'-O-Methyl-adenosine phosphorothioate; modified_base
notes: as for B3
Human Primary Hepatocytes-splice site editing % 1250 ng/mL [3]: 6.5% | Human Primary Hepatocytes-splice site editing % 2500 ng/mL [3]: 10.0% | Human Primary Hepatocytes-splice site editing % 5000 ng/mL [3]: 12.6%

B6: GA185: PCSK9 gRNA; protospacer AGACATGCAGGATCTTGGTG (SEQ ID NO: 179) (nucleic acid)
guide: mA*mG*mA*rCrArUrGrCrArGrGrArUrCrUrUrGrGrUrGrGrUrUrUrUrArGrArGrCrUrArGrArArArUrArGrCrArArGrUrUrArArArArUrArArGrGrCrUrArGrUrCrCrGrUrUrArUrCrArArCrUrUrGrArArArArArGrUrGrGrCrArCrCrGrArGrUrCrGrGrUrGrCrU*mU*mU*mU
Human Primary Hepatocyte Editing % 100 [1]: 1.6% | Human Primary Hepatocyte Editing % 500 [1]: 10.91% | Human Primary Hepatocyte Editing % 2500 [1]: 27.98% | Cyno Primary Hepatocyte Editing % 100 [2]: 1.14% | Cyno Primary Hepatocyte Editing % 500 [2]: 7.75% | Cyno Primary Hepatocyte Editing % 2500 [2]: 20.29%

B7: GA075: PCSK9 gRNA for ABE8.8 splice site editing, Human/Cyno (nucleic acid)
guide: TTGGAAAGACGGAGGCAGCCGTTTTAGAGCTAGAAATAGCAAGTTAAAATAAGGCTAGTCCGTTATCAACTTGAAAAAGTGGCACCGAGTCGGTGCTTTT
modifications: listed as RNA; modified_base 1: mod_base = OTHER; note = 2'-O-Methyl-uridine phosphorothioate; modified_base 2: mod_base = OTHER; modified_base
notes: as for B3
Human Primary Hepatocytes-splice site editing % 1250 ng/mL [3]: 1.8% | Human Primary Hepatocytes-splice site editing % 2500 ng/mL [3]: 3.1% | Human Primary Hepatocytes-splice site editing % 5000 ng/mL [3]: 5.5%

B8: GA182: PCSK9 gRNA; protospacer CACCTACGTGGTGGTGCTGA (SEQ ID NO: 176) (nucleic acid)
guide: mC*mA*mC*rCrUrArCrGrUrGrGrUrGrGrUrGrCrUrGrArGrUrUrUrUrArGrArGrCrUrArGrArArArUrArGrCrArArGrUrUrArArArArUrArArGrGrCrUrArGrUrCrCrGrUrUrArUrCrArArCrUrUrGrArArArArArGrUrGrGrCrArCrCrGrArGrUrCrGrGrUrGrCrU*mU*mU*mU
Human Primary Hepatocyte Editing % 100 [1]: 0.95% | Human Primary Hepatocyte Editing % 500 [1]: 4.49% | Human Primary Hepatocyte Editing % 2500 [1]: 17.44% | Cyno Primary Hepatocyte Editing % 100 [2]: 1.55% | Cyno Primary Hepatocyte Editing % 500 [2]: 6.14% | Cyno Primary Hepatocyte Editing % 2500 [2]: 22.89%

B9: GA183: PCSK9 gRNA; protospacer CTACGTGGTGGTGCTGAAGG (SEQ ID NO: 177) (nucleic acid)
guide: mC*mU*mA*rCrGrUrGrGrUrGrGrUrGrCrUrGrArArGrGrGrUrUrUrUrArGrArGrCrUrArGrArArArUrArGrCrArArGrUrUrArArArArUrArArGrGrCrUrArGrUrCrCrGrUrUrArUrCrArArCrUrUrGrArArArArArGrUrGrGrCrArCrCrGrArGrUrCrGrGrUrGrCrU*mU*mU*mU
Human Primary Hepatocyte Editing % 100 [1]: 2.21% | Human Primary Hepatocyte Editing % 500 [1]: 9.89% | Human Primary Hepatocyte Editing % 2500 [1]: 32.35% | Cyno Primary Hepatocyte Editing % 100 [2]: 2.87% | Cyno Primary Hepatocyte Editing % 500 [2]: 15.99% | Cyno Primary Hepatocyte Editing % 2500 [2]: 39.56%

B10: GA085: PCSK9 gRNA for ABE8.8 splice site editing, Human/Cyno (nucleic acid)
guide: GCCTCTTCACCTGCTCCTGAGTTTTAGAGCTAGAAATAGCAAGTTAAAATAAGGCTAGTCCGTTATCAACTTGAAAAAGTGGCACCGAGTCGGTGCTTTT
modifications: listed as RNA; modified_base 1: mod_base = OTHER; note = 2'-O-Methyl-guanosine phosphorothioate; modified_base 2: mod_base = OTHER; note = 2'-O-Methyl-cytidine phosphorothioate; modified_b
notes: as for B3
Human Primary Hepatocytes-splice site editing % 1250 ng/mL [3]: 1.2% | Human Primary Hepatocytes-splice site editing % 2500 ng/mL [3]: 1.8% | Human Primary Hepatocytes-splice site editing % 5000 ng/mL [3]: 2.4%

B11: GA084: PCSK9 gRNA for ABE8.8 splice site editing, Human/Cyno (nucleic acid)
guide: CCTCTTCACCTGCTCCTGAGGTTTTAGAGCTAGAAATAGCAAGTTAAAATAAGGCTAGTCCGTTATCAACTTGAAAAAGTGGCACCGAGTCGGTGCTTTT
modifications: 2'-O-methyl at 1, 2, other sugars and backbone not given here; further chemistry not fully specified
notes: as for B3
Human Primary Hepatocytes-splice site editing % 1250 ng/mL [3]: 4.9% | Human Primary Hepatocytes-splice site editing % 2500 ng/mL [3]: 7.6% | Human Primary Hepatocytes-splice site editing % 5000 ng/mL [3]: 8.6%

B12: GA082: PCSK9 gRNA for ABE8.8 splice site editing, Human/Cyno (nucleic acid)
guide: CTTACCTGCCCCATGGGTGCGTTTTAGAGCTAGAAATAGCAAGTTAAAATAAGGCTAGTCCGTTATCAACTTGAAAAAGTGGCACCGAGTCGGTGCTTTT
modifications: listed as RNA; modified_base 1: mod_base = OTHER; note = 2'-O-Methyl-cytidine phosphorothioate; modified_base 2: mod_base = OTHER; note = 2'-O-Methyl-uridine phosphorothioate; modified_bas
notes: as for B3
Human Primary Hepatocytes-splice site editing % 1250 ng/mL [3]: 5.6% | Human Primary Hepatocytes-splice site editing % 2500 ng/mL [3]: 9.6% | Human Primary Hepatocytes-splice site editing % 5000 ng/mL [3]: 9.8%

B13: GA076: PCSK9 gRNA for ABE8.8 splice site editing, Human/Cyno (nucleic acid)
guide: GAAAGACGGAGGCAGCCTGGGTTTTAGAGCTAGAAATAGCAAGTTAAAATAAGGCTAGTCCGTTATCAACTTGAAAAAGTGGCACCGAGTCGGTGCTTTT
modifications: 2'-O-methyl at 1, 2, other sugars, backbone and T or U not given here; further chemistry not fully specified
notes: as for B3
Human Primary Hepatocytes-splice site editing % 1250 ng/mL [3]: 1.6% | Human Primary Hepatocytes-splice site editing % 2500 ng/mL [3]: 3.9% | Human Primary Hepatocytes-splice site editing % 5000 ng/mL [3]: 4.9%
